Source: PMC7949046, “Human genetic variants disrupt RGS14 nuclear shuttling and regulation of LTP in hippocampal neurons” (The Journal of Biological Chemistry, 2020)

Molecular target: T1, purified XPO1-GST (GST-CRM1, Exportin 1) (human, UniProt O14980 1-1071)
T1 construct: Results and legend name the protein of the pull-down XPO1-GST / GST-XPO1, but the methods say that CRM1/XPO1 was cleaved from the beads with TEV protease; also called GST-XPO1; CRM1/XPO1; source: E. coli BL21, purified (glutathione Sepharose 4B)
Test: pull-down; purified RGS14 mixed 2 h with purified XPO1-GST and His-Ran Q69L-GTP; His-Ran captured on Ni-NTA; Coomassie and immunoblot
Details: both partners purified

T1 sequence (O14980 whole entry): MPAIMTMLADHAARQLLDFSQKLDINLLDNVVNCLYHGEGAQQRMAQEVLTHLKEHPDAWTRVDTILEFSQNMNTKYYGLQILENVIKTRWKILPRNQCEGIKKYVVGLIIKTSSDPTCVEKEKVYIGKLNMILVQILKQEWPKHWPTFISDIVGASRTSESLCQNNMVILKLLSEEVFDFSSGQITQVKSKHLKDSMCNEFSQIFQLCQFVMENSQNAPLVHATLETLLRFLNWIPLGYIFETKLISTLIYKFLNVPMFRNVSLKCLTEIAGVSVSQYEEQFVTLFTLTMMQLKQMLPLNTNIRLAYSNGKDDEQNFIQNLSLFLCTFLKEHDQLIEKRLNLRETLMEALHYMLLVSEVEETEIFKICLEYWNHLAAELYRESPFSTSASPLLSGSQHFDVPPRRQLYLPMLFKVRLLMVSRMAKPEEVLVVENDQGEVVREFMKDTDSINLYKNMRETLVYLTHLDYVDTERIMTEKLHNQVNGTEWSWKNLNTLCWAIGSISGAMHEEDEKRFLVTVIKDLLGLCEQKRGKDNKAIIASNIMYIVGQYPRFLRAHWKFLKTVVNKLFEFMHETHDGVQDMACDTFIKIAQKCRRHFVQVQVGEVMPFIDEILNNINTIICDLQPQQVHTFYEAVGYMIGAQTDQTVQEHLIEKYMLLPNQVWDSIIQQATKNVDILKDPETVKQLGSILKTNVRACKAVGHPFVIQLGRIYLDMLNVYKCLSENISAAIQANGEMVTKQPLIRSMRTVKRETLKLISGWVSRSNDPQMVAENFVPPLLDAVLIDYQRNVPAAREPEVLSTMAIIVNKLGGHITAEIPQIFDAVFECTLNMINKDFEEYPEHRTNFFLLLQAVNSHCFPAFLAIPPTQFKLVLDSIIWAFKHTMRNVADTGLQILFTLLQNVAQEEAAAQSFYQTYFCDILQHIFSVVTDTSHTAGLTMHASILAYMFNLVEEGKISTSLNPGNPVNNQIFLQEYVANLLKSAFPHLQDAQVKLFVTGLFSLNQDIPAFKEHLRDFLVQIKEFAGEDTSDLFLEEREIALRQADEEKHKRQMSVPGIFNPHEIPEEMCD

binding result: binds
B1: recombinant RGS14 WT, purified from E. coli (natural protein, rat, UniProt O08773 1-544, looked up)
chain: MPGKPKHLGVPNGRMVLAVSDGELTSTSGSQAQGEGRGSSLSIHSLPSGPSSPFSTDEQPVASWAQSFERLLQDPRGLAYFTEFLKKEFSAENVTFWQACERFQQIPASDTKQLAQEAHNIYHEFLSSQALSPVNIDRQAWLSEEVLAQPRPDMFRAQQLQIFNLMKFDSYARFVKSPLYQECLLAEAEGRPLREPGSSHLGSPDTARKKPKLKPGKSLPLGVEELGQLPLAEGRPLRKSFRREMPGGAVNSALRRESQGSLNSSASLDLGFLAFVSSKSESHRKSLGSGEGESESRPGKYCCVYLPDGTASLALARPGLTIRDMLAGICEKRGLSLPDIKVYLVGKEQKALVLDQDCTVLADQEVRLENRITFQLELVGLERVVRISAKPTKRLQEALQPILAKHGLSLDQVVLHRPGEKQLVDLENLVSSVASQTLVLDTLPDAKTREASSIPPCRSQGCLPRTQTKDSHLPPLSSSLSVEDASGSTGKRQTCDIEGLVELLNRVQSSGAHDQRGLLRKEDLVLPEFLQLPSQRPGSQEAPP
notes: RGS14, rat; expressed as MBP-TEV-RGS14 (the constructs paragraph names pLic-GST); The methods call the fusion MBP-TEV-RGS14 but purify it on a glutathione column and name the vector pLic-GST; the carrier may have been GST; also called WT RGS14; not shown: MBP, N-terminal, cleaved
